The record followed here is patent US7153676B1, “Transacylases of the paclitaxel biosynthetic pathway” (priority 1999, dated 2006).

In assay [1] the target is T1, taxane-2α-O-benzoyl transferase (TAX2) (Taxus cuspidata, UniProt Q9FPW3).
T1 construct: Full-length insert fragments of the relevant plasmids are excised and subcloned in-frame into the expression vector pCWori+; made in house; host or cells: E. coli JM109 (pCWori+)
T1 sequence (Q9FPW3 1-440): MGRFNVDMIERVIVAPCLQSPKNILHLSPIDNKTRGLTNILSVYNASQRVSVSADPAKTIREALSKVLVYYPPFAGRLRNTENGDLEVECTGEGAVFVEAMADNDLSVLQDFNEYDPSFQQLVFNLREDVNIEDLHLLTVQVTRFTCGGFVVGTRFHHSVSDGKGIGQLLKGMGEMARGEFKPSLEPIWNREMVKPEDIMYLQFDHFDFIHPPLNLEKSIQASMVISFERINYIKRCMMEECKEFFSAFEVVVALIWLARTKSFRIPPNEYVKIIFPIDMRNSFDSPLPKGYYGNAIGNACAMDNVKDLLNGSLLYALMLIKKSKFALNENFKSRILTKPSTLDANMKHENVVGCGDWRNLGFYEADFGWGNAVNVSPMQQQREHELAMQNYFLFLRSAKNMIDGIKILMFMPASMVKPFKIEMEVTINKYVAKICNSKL
Nature of the assay: recombinant TAX2 benzoyl transferase screening assay (radio-HPLC). The following applies: UV and radioactivity profiles. The format is biochemical. How it is done: TAX2, TAX5, TAX7, TAX9, TAX10, TAX 12, and TAX13 ([…]) were expressed in bacteria using the following protocol. For a typical preparation of the recombinant enzyme, each of the E. coli cultures transformed with a pCWori+ vector harboring a putative transacylase gene was grown overnight at 37° C. in 5 mL Luria-Bertani medium supplemented with 50 μg ampicillin/mL. 1 mL of these cultures was individually added to separate aliquots of 100 mL Terrific Broth culture medium (6 g bacto-tryptone (Difco Laboratories, Spark, Md.), 12 g yeast extract (EM Science, Cherryhill, N.J.), and 2 mL glycerol in 500 mL water) and grown at 37° C. After 3 hours, the medium was supplemented with 1 mM isopropyl-β-D-thiogalactopyranoside for induction and 50 μg ampicillin/mL, and the cultures were grown at 25° C. […]
A 1-mL aliquot of each soluble enzyme preparation was incubated with 2-debenzoyl-7,13-diacetylbaccatin III (500 μM) and [7-^14C]benzoyl coenzyme A (500 μM, 9.3 μCi) for 1.5 hours at 31° C. […] The resulting crude products of the assay were dissolved in acetonitrile (50 μL) and analyzed by radio-HPLC using a Perkin Elmer HPLC ISS 200 coupled to a PACKARD RADIOMATIC™ radioactivity detector series A100 (Canberra, Ind., Meriden, Conn.) (see FIGS. 12A and 12B for a representative chromatogram). […]

The next assay has as its target T2, TAX2 gene product (Taxus cuspidata, UniProt Q9FPW3).
T2 construct: Full-length insert fragments of the relevant plasmids are excised and subcloned in-frame into the expression vector pCWori+; made in house; host or cells: E. coli JM109 (pCWori+)
T2 sequence (Q9FPW3 1-440): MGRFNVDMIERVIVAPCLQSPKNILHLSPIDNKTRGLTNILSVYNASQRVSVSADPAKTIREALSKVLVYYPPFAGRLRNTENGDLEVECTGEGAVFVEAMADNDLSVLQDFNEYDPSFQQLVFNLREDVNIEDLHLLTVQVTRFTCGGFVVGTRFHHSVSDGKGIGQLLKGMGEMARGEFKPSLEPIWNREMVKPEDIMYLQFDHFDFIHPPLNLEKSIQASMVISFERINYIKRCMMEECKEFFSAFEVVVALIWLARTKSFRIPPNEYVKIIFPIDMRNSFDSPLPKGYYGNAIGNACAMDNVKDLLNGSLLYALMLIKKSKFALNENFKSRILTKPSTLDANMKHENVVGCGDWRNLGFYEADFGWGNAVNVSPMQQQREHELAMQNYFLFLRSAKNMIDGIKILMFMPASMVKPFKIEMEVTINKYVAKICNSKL
Kind of assay: recombinant TAX2 expressed in E. coli JM109, acetyl transacylase assay. The conditions noted are these: [3H]taxadienol and acetyl CoA co-substrates. The format is biochemical. The protocol:
To determine the identity of the putative taxadienol acetyl transacylase, TAX1 (SEQ ID NO: 28), TAX2 (SEQ ID NO: 26), and TAX6 (SEQ ID NO: 45) were subcloned in-frame into the expression vector pCWori+ (Barnes, Methods Enzymol. 272:3–14, 1996) and expressed in E. coli JM109 cells. The transformed bacteria were cultured and induced with isopropyl β-D-thiogalactoside (IPTG), and cell-free extracts were prepared and evaluated for taxadienol acetyl transacylase activity using the previously developed assay procedures (Walker et al., Arch. Biochem. Biophys. 364:273–279, 1999). Clone TAX1 (corresponding directly to Probe 1) expressed high levels of taxadienol acetyl transacylase activity (20% conversion of substrate to product), as determined by radiochemical analysis; the product of this recombinant enzyme was confirmed as taxadienyl-5α-yl acetate by gas chromatography-mass spectrometry (GC-MS) (FIGS. 5A–5G). […] Neither of the recombinant proteins expressed from TAX1 (SEQ ID NO: 28) or TAX2 (SEQ ID NO: 26) was capable of acetylating the advanced paclitaxel precursor 10-deacetyl baccatin III to baccatin III. […]

Entries after “also recorded” stand apart in the source; their conditions may differ.

B1: TAX2: full-length clone, SEQ ID NO: 25/26; taxane-2α-O-benzoyl transferase (protein, listed as Taxus cuspidata)
chain: MGRFNVDMIERVIVAPCLQSPKNILHLSPIDNKTRGLTNILSVYNASQRVSVSADPAKTIREALSKVLVYYPPFAGRLRNTENGDLEVECTGEGAVFVEAMADNDLSVLQDFNEYDPSFQQLVFNLREDVNIEDLHLLTVQVTRFTCGGFVVGTRFHHSVSDGKGIGQLLKGMGEMARGEFKPSLEPIWNREMVKPEDIMYLQFDHFDFIHPPLNLEKSIQASMVISFERINYIKRCMMEECKEFFSAFEVVVALIWLARTKSFRIPPNEYVKIIFPIDMRNSFDSPLPKGYYGNAIGNACAMDNVKDLLNGSLLYALMLIKKSKFALNENFKSRILTKPSTLDANMKHENVVGCGDWRNLGFYEADFGWGNAVNVSPMQQQREHELAMQNYFLFLRSAKNMIDGIKILMFMPASMVKPFKIEMEVTINKYVAKICNSKL
Take B1: the “product from 2-debenzoyl-7,13-diacetylbaccatin III and [7-14C]benzoyl CoA” value in assay [1] was “coincide exactly with the retention time of authentic 7,13-diacetylbaccatin III”. Besides, the “taxadienol acetyl transacylase activity” value in the assay with TAX2 gene product is “did not express taxadienol acetyl transacylase activity; also recorded: inactive”.
